# Assays:
# Type in all cases: biochemical, Ceriporiopsis subvermispora
# [1] = substrate: O=C(O)C(=O)O; assay: Oxalate oxidase kinetics, coupled horse radish peroxidase assay, OXOX-C
# Description: (§1) Sequences of both OXOX C and G alleles were published by Escutia et al., 2005 and were deposited with EMBL: OXOX-C partial genomic DNA, Acession No. AJ746414; OXOX-C partial cDNA, Acession No. AJ563659; OXOX-G genomic DNA, Acession No. AJ563660; OXOX-G cDNA, Acession No. AJ746412. See also, Escutia et al., Cloning and sequencing of two Ceriporiopsis subvermispora bicupin oxalate oxidase allelic isoforms: implications for the reaction specificity of oxalate oxidases and decarboxylases. (2005). Based on published sequence, mature proteins of OXOX C (SEQ ID NO: 21) and G (SEQ ID NO: 22) were synthesized and fused to N-terminal barley alpha amylase signal sequence (BAA ss; SEQ ID NO:3). The fungal OXOX coding sequence was synthesized with codon usage suitable for expression in soybean (FIG. 1A) and E. coli (FIG. 1B).
# (§2) The E. coli expression system was based on the published protocol of Escutia et al. Escutia et al., Cloning and sequencing of two Ceriporiopsis subvermispora bicupin oxalate oxidase allelic isoforms: implications for the reaction specificity of oxalate oxidases and decarboxylases. (2005). The coding sequence for the mature OXOX enzyme was inserted in E. coli expression vector pET32 (Invitrogen) to include a 6× histidine tag at the C-terminus. The resulting expression plasmid was transformed into E. coli strain BL21Star pLysS (Invitrogen).
# (§3) E. coli cultures were grown at 37° C. At optical density 0.4, arabinose was added to a concentration or 0.4%. After another hour of growth at 37° C., MnCl2 was added to 5 mM and IPTG to 1 mM. Cultures were then grown at 25° C. for 16 hours. Cells were harvested by centrifugation at 4000 rpm for 10 min. The supernatant was discarded and cell pellets were kept at −80° C. for at least one hour. Pellets were resuspended in total 40 ml of lysis buffer with 50 mM phosphate buffer pH7, 2 mg/ml protease inhibitor (sigma P-8465), 100 mM KCL, 1/1000 lysozyme, 1/2000 endonuclease, and incubated at 37° C. with shaking for one hour, followed by sonication. Cellular debris was removed by centrifugation and the clarified supernatant was poured into a new tube. Nickel resin (Qiagen) was added. After a short period of incubation, the slurry was poured onto a column and washed with buffer. Purified OXOX protein was eluted from the resin in 50 mM succinate pH 5, 100 mM KCl. The E. coli expression procedure was scalable allowing large scale protein production for kinetic analysis as well as small scale production for high throughput screening of libraries.
# (§4) Oxalate oxidase enzymatic activity was determined in a coupled reaction. Oxalate oxidase converts oxalic acid to carbon dioxide and hydrogen peroxide. In the presence of horse radish peroxidase, hydrogen peroxide reacts with 3-methyl-2-benzothiazolinone hydrazone (MBTH) and N,N-dimethylaniline (DMA) to form indamine dye, which can be detected spectrophotmetrically or colorimetrically as described by Laker, M. F., Hoffman, A. F., and Meeuse, J. D. (1980) Clinical Chemistry 26, 827-830. The coupled reaction was used for characterization of oxalate oxidase kinetic properties as well as in a screening procedure to identify oxalate oxidase variants with improved enzymatic properties.
# (§5) More modest improvements in Km and Kcat were observed under lower pH conditions. Coupled reaction was preformed as described in Example 3. Enzyme kinetic parameters were determined by standard methods as described in Segel (1976) Biochemical calculations, 2nd Edition. John Wiley & Sons, London, New York, Sydney, Toronto.
# [2] = substrate: O=C(O)C(=O)O; assay: Oxalate oxidase kinetics, coupled horse radish peroxidase assay, OXOX-G
# Description: as §1, §2, §3, §4, §5
# [3] = substrate: O=C(O)C(=O)O; assay: Oxalate oxidase kinetics, coupled horse radish peroxidase assay, FG23
# Description: as §2, §3, §4
# DNA shuffling was performed as described elsewhere herein. A polymerase chain reaction product corresponding to the OXOX-C coding sequence was fragmented by limited nuclease treatment. Synthetic oligonucleotides encoding sequence diversity from oxalate decarboxylase sequences found in public databases were added. A polymerase chain reaction procedure was performed on the mixture to yield a library of full length OXOX-C coding sequences with additional diversity incorporated. The resulting library was inserted in expression vector pET32, E. coli cells were transformed and protein was expressed, as described in Example 2. A tiered screening strategy was devised based on the OXOX protein expression and enzymatic activity determination procedures described in Examples 2 and 3, respectively. A high throughput screening process based on colorimetric determination of OXOX activity was utilized to identify individual E. coli strains harboring active OXOX variants. These OXOX-active strains were reassayed using quantitative spectrophotometric determination of OXOX activity. […] Three rounds of this iterative screening and selection procedure were completed, and OXOX variants with up to 8-fold improved activity were identified
# as §5
protein,measurement,setting,value
"Ceriporiopsis subvermispora oxalate oxidase OXOX-C, SEQ ID NO: 18 (Gelatoporia subvermispora B) (protein) RPTENGPQIVIANNAGTYLPVLRGSGTKSSSAADATQTVPFASDDPNPRLWDIDTKNLTKVTPERGQLGAKILGPDNLPIDLQNADTLAPPTTDSGSIPNPKWPFALSHNTLYSGGWVRIQNDEVMPIAKAMAGVNMRLEAGAIRELHWHNTPEWAYILKGTTQITAVDQNGRNYLANVGPGDLWYFPEGMPHSLQGTDANNEGSEFLLIFPDGTFDSSNQFMITDWLAHTPKDVIAKNFGVDISEFDRLPSHDLYIFPGVAPPLDAKAPEDPQGTIPLPYSFEFSKVKPTQYAGGTVKIADTRTFPIAKTISVAEVTVEPGAMRELHWHPTEDEWTFFIEGQARVTIFAGQSNAQTYDYQGGDIAYIPTAWGHYVENSGNTTLRFLEIFNSPLFEDVSLAQWIANTPPAIVKATLQLSDEVINTLNKSKAFVVG",Km,"[1]; other: pH 3.8, pH 3.8",350 µM
same,kcat,"[1]; other: pH 3.8, pH 3.8",5.45 s⁻¹
same,Km,"[1]; other: pH 4.8, pH 4.8",1240 µM
same,kcat,"[1]; other: pH 4.8, pH 4.8",2.74 s⁻¹
same,Km,"[1]; other: pH 5.8, pH 5.8",5950 µM
same,kcat,"[1]; other: pH 5.8, pH 5.8",0.91 s⁻¹
"Ceriporiopsis subvermispora oxalate oxidase OXOX-G, SEQ ID NO: 19 (Gelatoporia subvermispora) (protein) RPTGNDVFYLPRAVAVSSAGASSPASLSSGTESSSAAEPTETVPFASDDPNPRLWNIDTQDLSVVAPERGPLGAKIIGPDNLPLDIQNADTLAPPTTDSGSIPNAKWPFALSHNTLYTGGWVRIQNNEVLPIAKAMAGVNMRLEAGTIRELHWHNTPEWAYILKGTTQITAVDENGKNYLANVGPGDLWYFPEGMPHSLQGTNASDEGSEFLLIFPDGTFDASNQFMITDWLAHTPKDVIAKNFGVDISEFDRLPSHDLYIFPGVAPPLDATAPEDPQGTIPLPYSFEFSKVVPTQYAGGTVKIADTRTFPISKTISVAEITVEPGAMRELHWHPTEDEWTFFIEGQARVTLFAGESNAQTYDYQGGDIAYIPTAYGHYVENSGNTTLRFLEIFNSPLFQDVSLTQWLANTPRAIVKATLQLSDNVIDSLNKSKAFVVASD",Km,"[2]; other: pH 3.8, pH 3.8",400 µM
same,kcat,"[2]; other: pH 3.8, pH 3.8",4.80 s⁻¹
same,Km,"[2]; other: pH 4.8, pH 4.8",1370 µM
same,kcat,"[2]; other: pH 4.8, pH 4.8",2.56 s⁻¹
same,Km,"[2]; other: pH 5.8, pH 5.8",6140 µM
same,kcat,"[2]; other: pH 5.8, pH 5.8",0.82 s⁻¹
"Ceriporiopsis subvermispora oxalate oxidase OXOX-C variant FG23 (3-FG23), … (protein) RPTENGPQIVIANNAGTYLPVLRGSGTKSSSAADATQTVPFASDDPNPRLWNIDTQDLSVVAPERGPLGAKILGPDNLPIDLQNADTLAPPTTDSGSVPNPKWPFALSHNTLYSGGWVRIQNNEVLPIAKAMAGVNMRLEAGAIRELHWHNTPEWAYILKGTTQITAVDQNGRNYLANVSPGDLWYFPEGIPHSLQGTDANNEGSEFLLIFPDGTFDASNQFMITDWLAHTPKDVIAKNFGVDISEFDRLPSHDLYIFPGVAPPLDAKAPEDPQGTVPLPYSFEFSKVKPTQYAGGTVKIADTRTFPIAKTISVAEVTVEPGAMRELHWHPTEDEWTFFIEGQARVTIFAGQSNAQTYDYQGGDIAYIPTAYGHYVENSGNTQLRFLEIFNSPLFEDVSLAQWIANTPPAIVKATLQLSDEVIDSLNKQKASVVG",Km,"[3]; other: pH 3.8, pH 3.8",380 µM
same,kcat,"[3]; other: pH 3.8, pH 3.8",7.06 s⁻¹
same,Km,"[3]; other: pH 4.8, pH 4.8",1210 µM
same,kcat,"[3]; other: pH 4.8, pH 4.8",4.62 s⁻¹
same,Km,"[3]; other: pH 5.8, pH 5.8",5250 µM
same,kcat,"[3]; other: pH 5.8, pH 5.8",2.61 s⁻¹
